Experimental data reported in the supplement of paper PMC7877785.
± gives the uncertainty stated by the source.

Assay: self-splicing fitness, log relative to wild type (ln ratio); higher = more splicing; Tetrahymena group I intron in knt gene, E. coli kanamycin selection, DiMSum; sequences stand for … in CUCUCU…GGAGGGAAAAGUUAUCAGGCAUGCACCUGGUAGCUAGUCUUUAAACCAAUAGAUUGCAUCGGUUUAAAAGGCAAGACCGUCAAAUUGCGGGAAAGGGGUCAACAGCCGUUCAGUACCAAGUCUCAGGGGAAACUUUGAGAUGGCCUUGCAAAGGGUAUGGUAAUAAGCUGACGGACAUGGUCCUAACCACGCAGCCAAGUCCUAAGUCAACAGAUCUUCUGUUGAUAUGGAUGCAGUUCACAGACUAAAUGUCGGUCGGGGAAGAUGUAUUCUUCUCAUAAGAUAUAGUCGGACCUCUCCUUAAUGGGAGCUAGCGGAUGAAGUGAUGCAACACUGGAGCCGCUGGGAACUAAUUUGUAUGCGAAAGUAUAUUGAUUAGUUUUGGAGUACUCGUGGUCG
Procedure, shortened: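 A randomised library covering all eight P1ex-region intron nucleotides was built with the intron in the knt kanamycin-resistance gene on pET-22b(+) and held in E. coli BL21(DE3). Cells were grown overnight at 37°C or 30°C on LB agar, with or without 25 μg/mL kanamycin, plus 100 μg/mL carbenicillin, 50 μM IPTG and 0.2% rhamnose, and pooled colonies were amplicon-sequenced on an Illumina HiSeq 2500. DiMSum fitness is the error-weighted combination of wild-type-normalised replicate fold changes, kanamycin versus none.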

Row | Sequence | self-splicing fitness (ln) (30 °C) | self-splicing fitness (ln) (37 °C)
1 | CGUAAGCAAUAUUACGCGGG | -2.35 ± 0.15 | -2.72 ± 0.25
2 | UUGUAGCAAUAUUACGAGGC | -3.07 ± 0.27 | -1.77 ± 0.31
3 | UGUUAGCAAUAUUACGACAC | -3.43 ± 0.47 | -2.08 ± 0.43
4 | UACCAGCAAUAUUACGAAUU | -2.55 ± 0.17 | -1.96 ± 0.2
5 | ACACAGCAAUAUUACGUGAU | -2.14 ± 0.062 | -1.34 ± 0.086
6 | GGGUAGCAAUAUUACGUCUC | -0.431 ± 0.28 | 0.223 ± 0.43
7 | CCUAAGCAAUAUUACGCCAA | -2.22 ± 0.24 | -3.27 ± 0.46
8 | ACCCAGCAAUAUUACGCGGU | -3.41 ± 0.18 | -3.42 ± 0.21
9 | CAGUAGCAAUAUUACGAGUU | -3.52 ± 0.18 | -2.06 ± 0.15
10 | CACAAGCAAUAUUACGGCCU | -4.49 ± 0.24 | -2.74 ± 0.24
11 | CCGCAGCAAUAUUACGGCUC | -4.29 ± 0.21 | -1.34 ± 0.12
12 | AACAAGCAAUAUUACGUGGG | -2.93 ± 0.12 | -2.95 ± 0.13
13 | UUGUAGCAAUAUUACGCGUG | -0.196 ± 0.079 | -0.498 ± 0.1
14 | UGCAAGCAAUAUUACGGGGC | -3.59 ± 0.27 | -2.56 ± 0.24
15 | CACAAGCAAUAUUACGAUUG | -2.41 ± 0.064 | -1.15 ± 0.075
16 | CCCCAGCAAUAUUACGAUAG | -3.16 ± 0.1 | -3.25 ± 0.17
17 | UCGCAGCAAUAUUACGACUA | 0.0221 ± 0.14 | -0.0509 ± 0.14
18 | AGCGAGCAAUAUUACGUUUC | -4.07 ± 0.21 | -2.77 ± 0.18
19 | UGACAGCAAUAUUACGUCUG | -0.69 ± 0.072 | -0.119 ± 0.093
20 | CUCUAGCAAUAUUACGGAAA | -3.74 ± 0.3 | -3.54 ± 0.23
21 | UUAGAGCAAUAUUACGUAGA | -2.18 ± 0.17 | -1.41 ± 0.19
22 | CAAUAGCAAUAUUACGCUGA | -3.11 ± 0.22 | -1.85 ± 0.16
23 | GCAUAGCAAUAUUACGCCUA | -1.83 ± 0.13 | -1.39 ± 0.12
24 | ACGCAGCAAUAUUACGAUUA | -1.54 ± 0.091 | -0.902 ± 0.079
25 | CAAGAGCAAUAUUACGUAAU | -2.63 ± 0.23 | -2.7 ± 0.32

Row | Sequence | self-splicing fitness (ln) (30 °C) | self-splicing fitness (ln) (37 °C)
26 | AUUUAGCAAUAUUACGAUCU | 0.177 ± 0.13 | 0.0446 ± 0.11
27 | UGGGAGCAAUAUUACGUUAC | -2.73 ± 0.47 | –
28 | UUGAAGCAAUAUUACGCCGC | – | -2.1 ± 0.43
29 | CCUUAGCAAUAUUACGACAU | -3.677 ± 0.028 | -2.85 ± 0.043
30 | UAAGAGCAAUAUUACGACCC | -2.18 ± 0.37 | –
31 | UUCGAGCAAUAUUACGUUAG | -4.22 ± 0.42 | -3.37 ± 0.3
32 | GCCUAGCAAUAUUACGGCUC | -1.99 ± 0.15 | -0.272 ± 0.17
33 | CAUAAGCAAUAUUACGGACU | -3.64 ± 0.18 | -2.97 ± 0.23
34 | GCCUAGCAAUAUUACGUCCG | -3 ± 0.42 | -2.03 ± 0.26
35 | ACCAAGCAAUAUUACGUUCG | -1.88 ± 0.07 | -0.644 ± 0.093
36 | GACGAGCAAUAUUACGGAGA | – | -2.9 ± 0.38
37 | AAUAAGCAAUAUUACGGUGA | -1.18 ± 0.093 | -0.256 ± 0.11
38 | GGGUAGCAAUAUUACGCCUU | -1.56 ± 0.18 | -2.07 ± 0.21
39 | UUUAAGCAAUAUUACGGUAG | -0.741 ± 0.17 | -0.971 ± 0.21
40 | GAUAAGCAAUAUUACGCUCU | -2.11 ± 0.18 | -0.116 ± 0.2
41 | UUCGAGCAAUAUUACGCUGC | -3.44 ± 0.44 | –
42 | UACCAGCAAUAUUACGUGUU | -3.72 ± 0.11 | -1.38 ± 0.078
43 | UGGGAGCAAUAUUACGACGG | -2.22 ± 0.26 | -1.69 ± 0.39
44 | UAUCAGCAAUAUUACGCAUC | -1.87 ± 0.085 | -0.409 ± 0.12
45 | UAUUAGCAAUAUUACGUAAU | -3.24 ± 0.26 | -1.93 ± 0.24
46 | UUAUAGCAAUAUUACGCAAU | -2.86 ± 0.3 | -0.556 ± 0.23
47 | UGCCAGCAAUAUUACGCUCC | -2.88 ± 0.12 | -1.15 ± 0.14
48 | CCCCAGCAAUAUUACGUCUA | -3.09 ± 0.14 | -2.84 ± 0.2
49 | CCAAAGCAAUAUUACGUAAC | -4.73 ± 0.27 | -2.72 ± 0.28
